In IntAct's records for PubMed 17167417:

B1: DNA replication regulator DPB11 (Saccharomyces cerevisiae), P47027 (parent)
chain: MKPFQGITFCPTAINNEILAKKISKKIIKLGGIFSKDLTRQVNVLVVGSTTNTNKFKFAVKHRFDIIFIDIQAIDDIYQLWLSGENILPDSNTATMTGSTYEMLKILYRRFSFKYLHNFNIFIGRITDTNITSIDSLVRSIKKLGCSSYNYQNFVIKDTSSHNDDDDQGQNGQISIFVTDTLLGARVNAAIEQNIPIVHFKWILDCQKRSALLPYDPYYLLPNIKDLPYDSIGSNSCDCWDKINTTFPTNIDAQSSLQRQQSSSTLTPSLPKTSSLLNKFKPKGEKIWDKAMSLQQHSKTNFSVLGQSPLSINNKQEDLSDNSTLIFKNCAFIIHHIFPGNHRSILTKIVVQNGGKIETSYLSGIYDHSYYIIPSNKALDSFNDLPEIIDDNDGIVTEFFIERCLYYQKLLHPIDLWSKPFLSTIEFQVSSSSKLLHHEFSSSPFLNVTITGFSGVELLHLTKVLNLLKPMGINYVEYLNKSTDILLINLAALPSIPKTHPLWSNEFSDLFTQFCINNNNDDPGDNNRKDFQNNSILRNSMKRKIEYIKKFHSIPVVTPAFIFKLLSAASGENNEIFLNNIKWCIICPRGHKDDFKCKIKKPYYTSISSEKKYQNNDPKIDKTILLKRNNSSLSEHSMKDTKNELLQKIRETDSGRKKRSVSSSIMDVSSERQMPDTKRIKLESLPKNFVPKQIKRTTSWGTIMSENVPTEQPTAISNPEEIPRTEEVSHTQVTYGSIQDKKRTASLEKPMRRQTRNQTKELDS
partner: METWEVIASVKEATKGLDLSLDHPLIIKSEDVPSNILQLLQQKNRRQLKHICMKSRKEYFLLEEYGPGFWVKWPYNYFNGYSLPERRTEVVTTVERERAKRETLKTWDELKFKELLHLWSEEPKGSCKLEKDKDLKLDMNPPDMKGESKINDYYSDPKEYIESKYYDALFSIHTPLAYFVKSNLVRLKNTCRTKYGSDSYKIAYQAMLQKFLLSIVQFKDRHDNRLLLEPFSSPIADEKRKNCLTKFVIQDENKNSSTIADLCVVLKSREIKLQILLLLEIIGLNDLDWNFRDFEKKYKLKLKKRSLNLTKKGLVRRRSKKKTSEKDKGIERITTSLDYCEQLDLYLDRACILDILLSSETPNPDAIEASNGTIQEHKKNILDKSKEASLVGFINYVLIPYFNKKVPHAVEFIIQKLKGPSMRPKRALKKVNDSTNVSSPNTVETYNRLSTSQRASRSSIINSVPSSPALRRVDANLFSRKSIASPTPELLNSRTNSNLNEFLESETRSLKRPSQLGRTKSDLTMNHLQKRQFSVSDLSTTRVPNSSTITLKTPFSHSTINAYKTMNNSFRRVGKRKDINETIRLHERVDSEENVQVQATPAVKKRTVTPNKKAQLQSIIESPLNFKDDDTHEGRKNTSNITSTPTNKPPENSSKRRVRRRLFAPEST

Variants of: B1
Conditions: with sld3_yeast SLD3, P53135

Variant	effect of a mutation on the interaction
K55D;F56P	disrupting interaction strength
